Among the data in patent US20230242601A1 (published 2023) are Kd values, retold here.

Sequence of FABP3 fused with a His-tag at the N-terminus (chain, as listed by the source): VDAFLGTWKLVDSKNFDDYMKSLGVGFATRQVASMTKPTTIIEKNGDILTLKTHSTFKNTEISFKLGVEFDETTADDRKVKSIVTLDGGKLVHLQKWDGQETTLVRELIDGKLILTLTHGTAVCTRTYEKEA

The assay concerns the target FABP3 fused with a His-tag at the N-terminus. Briefly: QCM.
In the case of EEGYQDWEPEA [SynP130-140 Y136W], the Kd (commonly a measure of binding affinity in units of concentration) was found to be 6.3 nM.
To EEGWQDWEPEA [SynP130-140 Y133W/Y136W] belongs 6.2 nM.
For EEGFQDFEPEA [SynP130-140 Y133F/Y136F], the Kd was 2.1 nM.
In turn, EEGYQDFEPEA [SynP130-140 Y136F] had a Kd of 7.7 nM. This Kd is about 3.7-fold higher than that of the molecule before.
To EEGFQDWEPEA [SynP130-140 Y133F/Y136W] belongs 6.1 nM; to EEGYQDYEPEA [SynP130-140 peptide], 6.1 nM.
